Results as given in the DeepSol protein solubility set.

Test: soluble on expression in E. coli; label from the status in PepcDB or PDB records

Sequence	soluble on expression in E. coli
GPGSMDIDSPYKILGIPQSASVADIRAAFRRLALTTHPDKQGSNTSGGEAQMMLYSSHPFYVIKEASDILLDPVRRAEYDEGQQRMYARSIGVVSDVHDISDFRLVEERKALCSEDRVCGDVTIQVYEMECRCGGAFEIFLVKGEEGNMDKLCGCDSCSLIVSVRRQTQQ	soluble
MKKPIEFYLSGDRVYSTREKAINQLYNNRGYGELKGDKLFLSLIEAAYLTEKGWIKVVDKDKELKFDDLMKLGKSRDEDFDIKYIVYKDLRDRGYIVKSALKFGSHYRVYRKDAEHSDWLIWVLRENQRLSPNDITARARVAHGVRKNMVLAIVDEDGDVVYYKVEWIKF	soluble
MECAEKVEAEIPGQAGRRAGKPSRTYYLEVYGCSLSEFDALIMASRLEEAGYRRVARPEDADVILVNTCAVRLDTEQRIAERLEKLRLQLPDRKYVVAGCLVKARPGLVARLVPEASLLAPQAVERVLDAVDALESGRRLVVLDGRRDTRSMPQLPITDAVVTVMIQEGCLGDCSFCITKVARRQVRSYSPRVIVERVREAVEKGAREIRLTGTDVAVYGVDLPGKPNLADLVAAILEKVEGDYRIRVGMMTPDQVEPYLDSLLDVYRDERVYKYFHLPVQSGDDEVLKIMKRNYTVSEYKAIHRRIKSRFPDAMIATDIIVGHPGETWEAFWNTVRLVEELRFEKVHLAQYSLRPHTEAASMEQVPDSVKKERSRILGKIVAEIGLEINGSYVGRRVRALVTERSWREGSMTGRLDNYTPIILPYEERAMGRWVYAEVEEATFFDLRSSKFEPAP	soluble
MLVLPKGVRHMPAYLSRAIQDALVEDVRSIVQQAPLFVPAMPRTGKEMSVRMTNCGPLGWVTDKERGYRYQPTHPLTGEPWPPIPESLLDLWRQVSGYPNPPEACLINFYTADAKMGLHQDRDEADFSAPVVSVSLGDDCLFRVGQTTRDGATKSFRLKSGDVVVLGGEGRLAFHGVDRIYPSTSALLKNGGRINLTLRRVTKPHEECLTSRSLEHHHHHH	soluble
APQIQYKQLQLARLKILRELSNKRNSTVITMIHRQESIGLFGIPVYKFITIEDSEEILRAIRAAPKDKPIDLIIHTPGGLVLAATQIAKALKAHPAETRVIVPHYAMSGGTLIALAADKIIMDENAVLGPVDPQLGQYPAPSIVKAVEQKGADKADDQTLILADIAKKAINQVQNFVYNLLKDKYGEEKAKELSKILTEGRWTHDYPITVEEAKELGL	not soluble
GIPKCPEDWGASSRTSLCFKLYAKGKHEKKTWFESRDFCRALGGDLASINNKEEQQTIWRLITASGSYHKLFWLGLTYGSPSEGFTWSDGSPVSYENWAYGEPNNYQNVEYCGELKGDPTMSWNDINCEHLNNWICQIQKGQTPKPD	soluble
MPGSDAGPRRRGVHEQRRNRMSNEAKCPFHQAAQNGTSNRDWWPNQLDLSILHRHSSLSDPMGKDFNYAQAFEKLDLAAVKRDLHALMTTSQDWWPADFGHYGGLFIRMAWHSAGTYRTADGRGGAGEGQQRFAPLNSWPDNANLDKARRLLWPIKQKYGRAISWADLLILTGNVALESMGFKTFGFAGGRADTWEPEDVYWGSEKIWLELSGGPNSRYSGDRQLENPLAAVQMGLIYVNPEGPDGNPDPVAAARDIRDTFARMAMNDEETVALIAGGHTFGKTHGAGPASNVGAEPEAAGIEAQGLGWKSAYRTGKGADAITTGLEVTWTTTPTQWSHNFFENLFGYEWELTKSPAGAHQWVAKGADAVIPDAFDPSKKHRPTMLTTDLSLRFDPAYEKISRRFHENPEQFADAFARAWFKLTHRDMGPRARYLGPEVPAEVLLWQDPIPAVDHPLIDAADAAELKAKVLASGLTVSQLVSTAWAAASTFRGSDKRGGANGARIRLAPQKDWEANQPEQLAAVLETLEAIRTAFNGAQRGGKQVSLADLIVLAGCAGVEQAAKNAGHAVTVPFAPGRADASQEQTDVESMAVLEPVADGFRNYLKGKYRVPAEVLLVDKAQLLTLSAPEMTVLLGGLRVLGANVGQSRHGVFTAREQALTNDFFVNLLDMGTEWKPTAADADVFEGRDRATGELKWTGTRVDLVFGSHSQLRALAEVYGSADAQEKFVRDFVAVWNKVMNLDRFDLA	soluble
MGHHHHHHSHMIINWNQVSVLWKCLLKQSASYQDRRQSWRRASMKETNRRKSLHPIHQGITELSRSISVDLAESKRLGCLLLSSFQFSIQKLEPFLRDTKGFSLESFRAKASSLSEELKHFADGLETDGTLQKCFEDSNGKASDFSLEASVAEMKEYITKFSLERQTWDQLLLHYQQEAKEILSRGSTEAKITEVKVEPMTYLGSSQNEVLNTKPDYQKNYRTRAKSLTVWSW	not soluble
MSVASETNWKKLDEKIAISGQISVDDVAAIAAAGYKSIICNRPDGEGGEHQPGSTELEEAAKAAGLQFAYLPVEIGQVSDEKCSAFHQLMATLPGPVLAFCNSGNRARALYSRDVGTTTTPAETISAACDWEHEAAAVTEAESEAAGAAAVSAASSRDEAAGKSIPVTPACNWDNAFDIVVVGGGSAGLGVTASLLRRRSSLRIAIIEPNDKHYYQPAWTLVGGGAYAVDQTVRNTADVIPHGAEWIKAEVSGFSPNDNLVHLADGRTIGYQQLIVCPGIRLAWEKIEGIQETLGKNGVTSNYLFDLAPYTWSLTQQLKGGKALFTQPPMPIKCAGAPQKAMYLSCDYWQRQGVLDKIEVEFDSAGAVLFGVADFVPPLMEYVRKYHANLVFNSNLVKVNGPEKIATFEIKNEAGEVTRVDKPFDMLHVTPPQAAPDFLRDSPLADASGYCEVNPKTLQHTRFANIFSLGDACSSPNTKTAAAVRKQIVIVAENLLAAKDGREFHAVYDGYGACPLTVENGKVVLAEFGFGGKLLPTFPLNPAVARKLYWWFKVKLFPWLYWEGMLKGREWLTRSTETKLEHHHHHH	soluble
MTMEALLTPNNNNVPTSPVQTTYTSTQRYCSAPNVDIGESKTNLIINYLPQGMTQEEVRSLFTSIGEIESCKLVRDKVTGQSLGYGFVNYVREEDALRAVSSFNGLRLQNKTIKVSYARPSNDQIKGSNLYVSGIPKSMTLHELESIFRPFGQIITSRILSDNVTGLSKGVGFVRFDKKDEADVAIKTLNGSIPSGCSEQITVKFANNPASNNPKGLLSDLEAVQQAATTLVPLSTILGAPTLRATAGGIGPMHHAPITSKYRYSPMGAITAVSQPTATLPADYLTTSALLQMSQLNALAGLNPFATATAVPDFTASLIAHQQQQHAVAQQHAAQTASPPATNGQVAGLAAHAQLSALSASVAATLPPSDTAGYCLFVYNLSSDTDDTLLWQLFSQFGAIVNVKILRDLTQQCKGYAFVSMSNYTEAYNAMLSLNGTNLAGKTLQVVFKSSTPYRA	not soluble
DNPINIAVPGVAQQNVSATINNGTLTRRGNLWIARPTKVGSEAIISVTAQSGGRTIQMAKTTLRVRALPDPLPYIEYKDVQGNTKRFKGGRLGKREILAAGGIKAALDDDLLEVNYTVVKFQLVFYDSMGNSIPEVSDGASFSERQKRQIQNLGKGKRFYVTEVIARGPDGIERKIPAIEVIVN	not soluble
MTNDTNITNDKDINANIAHDDHFNDSIVNEVILEDMKKNRIDHMKYLPDMEVLDSDIMDRVVAEMDAYDYDQYTAADVRAALSHEYRTLEDFKALLSPAAQPFIEEIAQAAQLETRKHFGNSVCMFTPLYISNYCENYCIYCGFNCHNKINRAKLNASEIEKEMAAIAKTGLQEILILTGESKKMSDVEYIGEACKIARKYFKVIGLEVYPMNSDEYAYLHECGADYVTVFQETYNSDKYETLHLAGHKRIFPYRVNAQERALKGGMRGVGFAALLGLDDFRKDALATGYHAYLLQKKYPRAEIAFSCPRLCPIINNDRINPKDVHETQLLQVVCAYRLFMPFASITISTREVARVRDNLVNIAATKISAGVSTGIGSHVDDIEDKGDDQFEISDGRSVDEVFNALLDNGLQPVMSDYIYV	not soluble
MGSDKIHHHHHHMKTLKFKLYQHKRNRHLKRIINAAGVIYNHCIALHKRYYRMWGNHLSCAKLQSHIAKLRKRNLFWQSLGSQAVQDICQRIEKAYQLFFKHNKKGVRPPGFKKVKKYKSFTLKQAGYKFLGSNRVKIGHRVYQFWKSRDIEGTVKTLTIKRTPLGELFMVVVVDNVSQAEIEVKTGKIAGFDFGLKTFLTCSDGTKIESPQFFKQSLNAIKKASRQHSKKLKSSSNRERARKNLVRKYEDISHRRRDWFWKLAHELTDKFDILCFETLNLKGMQRLWGRKISDLAFGEFLQILKWIAKKKNKLVVFIDQWYPSTKTCSGCGHVLEELDLSIREWRCPSCQSVNGRDENASKVICAVGASTVGLGDVSRYETAIAV	not soluble
MNIGIIGTGNMGNILIDAFLETRAVKPSCLTIINRTPAKAYHIKEKYPSVHIAKTIPEVIEQSQLIFICVKPIDIYPILKKYAEHFSDETCLVSITSPISPSQLETLVPCHVARIIPSITNRALSGASLFTFGDNCSEEWQQKLLRLFKNISTPLVIEEDITRVSSDIASCGPAFFSYLLQCFINAAVDKTNITHEEATTLVSEMVVGMGKLLEKEIFTLPTLQEKVCVKGGVTGEGIRVLEEHVGDMFHKLIERTHEKFDEDLECVDQQFNKHT	not soluble
MAHHHHHHMPPLRGAGRGRNKTGTVPTARTNGGFKAKGSVKPRTFDEYYGEIYGARWHTLRTAMMEAPRKVALWNRFSQVPFEEATRGLSRVEPNSLIQAFQPTQTANSTEAVSTADRGINDDDEAKLQGKALAAAADDLLHRNGVIDKPPIDAFGIKAYYLLDYASAHVVEQLQVGAFDTVLDMCAAPGGKSIAVAQFLSPDGALTCNEARADRCARLRRNLQEHVPVNYVPWRTTQRDAQTWYDPGAFSRVLVDAPCSSERHLLQQSGGSPLSLREWSEETTVQLAALQRMLLQRAIETCRVGGRIVYSTCSISPLENDGVVGEVLQRTRCEVKVIKTSPAAAAAAPVALPKTATDAGESDASGAEACAPHTPTVLGEATAYGRLLLPDTCHGWGPMFLCVLEKTAEHKDVSSSSEDDDE	not soluble
MSLVNSLTHYEILRIPSDATQDEIKKAYRNRLLNTHPDKLSKSIHDTVSNVTINKIQDAYKILSNIKTRREYDRLILENYKRQGFHNCGDGLDEFSLDDFSFDEDKLEFMMNCPRCQFVGGFHFSESLLDECIDNVDAMERSHSGYQLLTQCSACSLWLKVNFDIEEEQEGQ	not soluble
MGVATMVTDKYQKCIDACNRCSQACYECFKACLNEPDVNARRTCISILFECAQMCQMSSALMSMDAQFAIDHCKLCSVICDKCAQECSMFQDPHCQKCANECRTCSNECRMMSGMLEHHHHHH	soluble
PLWVAPDGHIFLEAFSPVYKYAQDFLVAIAEPVCRPTHVHEYKLTAYSLYAAVSVGLQTSDITEYLRKLSKTGVPDGIMQFIKLCTVSYGKVKLVLKHNRYFVESCHPDVIQHLLQDPVIRECRLRNSEGEATELITETF	not soluble
MSNIYDWSLKADENAHSDNIINWAEGQPPSSVNDSARAMMQRVREYLADNGGSLDSTFIVNAEDKTTSIIVTTASPIEEYKNDIIIRFKAGGVNVGTTTVIVNNIEEKLLYKATNAGVTPLEGGELQRDAIYEMVYNKDVSMEDHGGWYLLNPTPLPPPKIETFPSGFIATFAMQEVPSGWLLCDGAVYERKDYPQLFKAIGDKWGKDSDTTFKVPDFRGMFLRGFDDGRGLDAGRQFADQQHDSIRSHTHIGTIEEAGEHTHKFQYYGVGWDSGDIGRRNPFYYRQSSTGVTQSAGAHTHDISLSPTGEAETRPVNTTVVYAIKS	not soluble
MVSVSEIRKAQRAEGPATILAIGTANPANCVEQSTYPDFYFKITNSEHKTELKEKFQRMCDKSMIKRRYMYLTEEILKENPNVCEYMAPSLDARQDMVVVEVPRLGKEAAVKAIKEWGQPKSKITHLIVCTTSGVDMPGADYQLTKLLGLRPYVKRYMMYQQGAFAGGTVLRLAKDLAENNKGARVLVVCSEVTAVTFRGPSDTHLDSLVGQALFGDGAAALIVGSDPVPEIEKPIFEMVWTAQTIAPDSEGAIDGHLREAGLTFHLLKDVPGIVSKNITKALVEAFEPLGISDYNSIFWIAHPGGPAILDQVEQKLALKPEKMNATREVLSEYGNMSSACVLFILDEMRKKSTQNGLKTTGEGLEWGVLFGFGPGLTIETVVLRSVAI	soluble
